Measured values from article PMC9478924.

T1: EVA-4, P0C8E9
T1 chain: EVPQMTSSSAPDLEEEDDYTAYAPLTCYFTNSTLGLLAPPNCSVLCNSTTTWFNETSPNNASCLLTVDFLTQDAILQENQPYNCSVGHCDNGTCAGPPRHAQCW

T2: EVA-P974, A0A023
T2 chain: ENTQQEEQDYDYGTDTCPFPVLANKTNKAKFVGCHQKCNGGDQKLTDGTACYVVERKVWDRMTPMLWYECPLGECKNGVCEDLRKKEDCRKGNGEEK


Legend:
Test in all cases: SPR
EVA-4, P0C8E9 = molecular target: T1, EVA-4, P0C8E9; details: remark: other sources report otherwise
CHI-1P = molecular target: CHI-1P
[1] = molecular target: EVA-RPU02 (Rhipicephallus pulchellus (zebra tick or yellow back tick))
EVA-P974, A0A023 = molecular target: T2, EVA-P974, A0A023; details: remark: other sources report otherwise
[2] = molecular target: CHI-1R (not stated | Rhipicephallus pulchellus (zebra tick or yellow back tick))
CHI-P1 = molecular target: CHI-P1
[3] = molecular target: CHI-R1 (Rhipicephallus pulchellus (zebra tick or yellow back tick) | not stated)
[4] = molecular target: CHI-PR (not stated | Rhipicephallus pulchellus (zebra tick or yellow back tick))

Kd (CHI-1P) [nM]	Kd [1] [nM]	koff [1] [s⁻¹]	kon [1] [M⁻¹ s⁻¹]	Kd [2] [nM]	Binder	further results
–	–	–	–	–	CCL4, P13236 24-92 (ligand, here or on the partner: biotin on the Avi-tag (Bir-A ligase)) APMGSDPPTACCFSYTARKLPRNFVVDYYETSSLCSQPAVVFQTKRSKQVCADPSESWVQEYVYDLELN	Kd (EVA-4, P0C8E9): 158 nM
191	–	–	–	–	CCL1 (ligand) KSMQVPFSRCCFSFAEQEIPLRAILCYRNTSSICSNEGLIFKLKRGKEACALDTVGWVQRHRKMLRHCPSKRK	–
–	503	0.069	140000	–	CCL15 (ligand) QFTNDAETELMMSKLPLENPVVLNSFHFAADCCTSYISQSIPCSLMKSYFETSSECSKPGVIFLTKKGRQVCAKPSGPGVQDCMKKLKPYSI	–
–	–	–	–	–	CCL15, Q16663 22-113 (ligand, here or on the partner: biotin on the Avi-tag (Bir-A ligase)) QFTNDAETELMMSKLPLENPVVLNSFHFAADCCTSYISQSIPCSLMKSYFETSSECSKPGVIFLTKKGRQVCAKPSGPGVQDCMKKLKPYSI	Kd (EVA-P974, A0A023): 299 nM
149	32.4	0.024	580000	60	CCL14 (ligand) TKTESSSRGPYHPSECCFTYTTYKIPRQRIMDYYETNSQCSKPGIVFITKRGHSVCTNPSDKWVQDYIKDMKEN	Kd (CHI-P1): 79 nM; Kd [3]: 134 nM
206	651	0.35	490000	> 500	CCL18 (ligand) AQVGTNKELCCLVYTSWQIPQKFIVDYSETSPQCPKPGVILLTKRGRQICADPNKKWVQKYISDLKLNA	Kd [4]: 315 nM
25	–	–	–	> 500	CCL22 (ligand) GPYGANMEDSVCCRDYVRYRLPLRVVKHFYWTSDSCPRPGVVLLTFRDKEICADPRVPWVKMILNKLSQ	–
182	–	–	–	> 500	CCL16 (ligand) QPKVPEWVNTPSTCCLKYYEKVLPRRLVVGYRKALNCHLPAIIFVTKRNREVCTNPNDDWVQEYIKDPNLPLLPTRNLSTVKIITAKNGQPQLLNSQ	–
